Tests used:
GPR12 = target: T1, GPR12 (Mus musculus, UniProt P35412); experiment: Expression of a CRE-reporter gene (pCRE-Luc luciferase) in NB41A3 cells expressing GPR12 endogenously; assay type: cell-based; conditions: NB41A3 cells transfected with pCRE-Luc, 10^-10 M, 16 hours
T1 construct: in which GPR12 was endogenously expressed; endogenous in cells; host or cells: NB41A3 cells (ATCC-CCL147), mouse brain neuroblastoma
T1 sequence (P35412 1-334): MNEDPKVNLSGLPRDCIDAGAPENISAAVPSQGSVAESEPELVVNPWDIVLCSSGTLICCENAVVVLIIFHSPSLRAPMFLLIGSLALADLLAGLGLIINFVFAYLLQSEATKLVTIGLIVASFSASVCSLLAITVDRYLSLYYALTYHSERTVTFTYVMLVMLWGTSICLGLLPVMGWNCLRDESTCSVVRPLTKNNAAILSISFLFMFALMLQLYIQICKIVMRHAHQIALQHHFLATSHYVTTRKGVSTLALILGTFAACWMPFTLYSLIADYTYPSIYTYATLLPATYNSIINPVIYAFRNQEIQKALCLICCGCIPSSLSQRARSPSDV
Description: NB41A3 cells (ATCC-CCL147), a cell strain derived from mouse brain neuroblastoma, in which GPR12 was endogenously expressed were used. The confluent NB41A3 cells were recovered in a 10-cm dish, plated onto 10 cm-dishes after dividing the cell colony in four quarters, and cultured for one day in Ham's F12K medium. The cells were transected with 5 μg of the reporter plasmid pCRE-Luc (Stratagene Corporation, Catalog No. 219074) in which TATA-BOX and luciferase were incorporated into downstream of CRE by a calcium phosphate method. The cells were washed with Ham's F12K medium 16 hours after the transfection. Ham's F12K medium containing no test substance (Vehicle), Ham's F12K medium containing 10^−10 M of Nesfatin-1 M30 (Mid-Segment: SEQ ID NO: 11), Ham's F12K medium containing 10^−10 M of a modified peptide M30_Ag-A (SEQ ID NO: 50) (M30_Ag-A), and Ham's F12K medium containing 10^−10 M of a modified peptide M30_MSH-A (SEQ ID NO: 51) […] were added to the cells, and the resultant mediums were cultured under the conditions of 37° C. and 5% CO2 for 16 hours. After the culturing, the cells were washed twice with phosphate-buffered saline (PBS), lysed with 4 mL of lysis buffer (an aqueous solution containing 25 mM of glycylglicine (pH 7.8), 15 mM of magnesium sulfate, 4 mM of glycol ether diaminetetraacetic acid (EGTA), 1 mM of dithiothreitol (DTT), and 1% (volume/volume) of Triton X-100). […] After adding 200 μL of 0.2 mM of d-luciferin to the diluted cell lysate, the luminescence was measured for 10 seconds by a luminometer, and the amount of luminescence (units) was determined. Further, the amount of protein in each cell lysate was measured by BCA™ Protein Assay Kit-Reducing Agent Compatible (Pearce, Catalog No. 23250), and the value obtained by dividing the amount of luminescence (units) by the amount of protein (μg) in a sample was determined as a luciferase activity. […] The cells were cultured for 16 hours, and then the level of luciferase activity was also determined.

[1] = Amount of food intake in a mouse after intraperitoneal administration; assay type: in vivo; conditions: C57BL/6J male mouse, 0.25 nmol per gram of body weight, 0 to 3 hours
Description: A 7-week-old C57BL/6J strain male mouse (CLEA Japan, Inc.) was used as an experimental animal. After purchasing the mouse, the mouse was raised at 22° C. in cycles of the 12-hour light period from 6 a.m. to 6 p.m. and the 12-hour dark period from 6 p.m. to 6 a.m. on the next morning with free access to pelleted feed (CLEA Japan, Inc., CE-2).
A 5 nmol aliquot of Nesfatin-1M30 (Mid-segment, SEQ ID NO: 11), M30_Ag-A (SEQ ID NO: 50), or M30_MSH-A (SEQ ID NO: 51) was dissolved in each 100 μL of saline, and each of the resultant solutions was administered intraperitoneally to a C57BL/6J mouse at a dose of 0.25 nmol per gram of body weight of the mouse. In the control group, only saline (Vehicle) was administered. Each mouse (5 mice in each group) was intraperitoneally given a single injection of a sample using a tuberculin syringe with 26 G needle, immediately before the dark period (6 p.m.).
Each mouse administered was placed in an individual cage, and the amount of food intake was determined by measuring the decreased amount of the pelleted feed during the period from 0 to 3 hours after the administration of a test substance. In the mouse administered with each test sample, the amount of food intake during 3 hours after the administration (g/3 h) is shown in FIG. 6.

Nesfatin-1M30: mid-segment of Nesfatin-1, human-derived Nesfatin-1M30, SEQ ID NO: 11 (PDTGLYYDEYLKQVIDVLETDKHFREKLQK; listed as Homo sapiens)
luciferase activity compared with Vehicle (GPR12): enhanced
amount of food intake during 3 hours after the administration compared with control group (Vehicle) [1]: significant decrease of the food intake

Reference: patent publication US8221990B2, “Screening GPR12 receptor for substances having Nesfatin-1-like action, or which regulate Nesfatin-1 action” (Teijin Pharma Limited, priority 2007, dated 2012)
